The values that follow come from US20220289850 (published 2022).

The target of one test is T1, human integrin avb8 (human).
T1 chain 1: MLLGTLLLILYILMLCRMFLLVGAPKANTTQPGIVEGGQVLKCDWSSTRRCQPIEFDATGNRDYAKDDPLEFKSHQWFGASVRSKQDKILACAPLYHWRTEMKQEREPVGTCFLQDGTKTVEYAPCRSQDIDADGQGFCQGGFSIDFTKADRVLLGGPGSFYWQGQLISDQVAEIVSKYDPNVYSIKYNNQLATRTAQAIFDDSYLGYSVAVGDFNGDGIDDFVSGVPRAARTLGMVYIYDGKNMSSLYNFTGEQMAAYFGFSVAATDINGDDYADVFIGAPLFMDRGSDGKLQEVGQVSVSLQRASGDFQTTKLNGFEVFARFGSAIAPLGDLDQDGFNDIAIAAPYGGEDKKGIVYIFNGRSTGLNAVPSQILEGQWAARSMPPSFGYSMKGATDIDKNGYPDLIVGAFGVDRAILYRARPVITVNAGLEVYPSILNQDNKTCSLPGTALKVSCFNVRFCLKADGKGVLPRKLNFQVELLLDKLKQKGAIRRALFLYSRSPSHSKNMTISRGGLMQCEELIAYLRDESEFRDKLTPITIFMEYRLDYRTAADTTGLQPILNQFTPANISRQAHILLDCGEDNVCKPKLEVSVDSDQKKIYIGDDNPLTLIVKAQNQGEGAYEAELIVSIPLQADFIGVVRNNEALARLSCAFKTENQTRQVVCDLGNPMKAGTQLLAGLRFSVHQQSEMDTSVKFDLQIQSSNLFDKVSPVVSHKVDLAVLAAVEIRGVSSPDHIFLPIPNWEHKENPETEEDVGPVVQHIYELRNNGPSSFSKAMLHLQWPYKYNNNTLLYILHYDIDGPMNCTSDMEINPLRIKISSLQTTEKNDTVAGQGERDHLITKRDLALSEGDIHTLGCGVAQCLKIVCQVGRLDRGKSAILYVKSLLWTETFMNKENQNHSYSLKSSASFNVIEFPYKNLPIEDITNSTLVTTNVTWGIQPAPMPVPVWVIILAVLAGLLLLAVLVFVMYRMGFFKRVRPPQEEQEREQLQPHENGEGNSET
T1 chain 2: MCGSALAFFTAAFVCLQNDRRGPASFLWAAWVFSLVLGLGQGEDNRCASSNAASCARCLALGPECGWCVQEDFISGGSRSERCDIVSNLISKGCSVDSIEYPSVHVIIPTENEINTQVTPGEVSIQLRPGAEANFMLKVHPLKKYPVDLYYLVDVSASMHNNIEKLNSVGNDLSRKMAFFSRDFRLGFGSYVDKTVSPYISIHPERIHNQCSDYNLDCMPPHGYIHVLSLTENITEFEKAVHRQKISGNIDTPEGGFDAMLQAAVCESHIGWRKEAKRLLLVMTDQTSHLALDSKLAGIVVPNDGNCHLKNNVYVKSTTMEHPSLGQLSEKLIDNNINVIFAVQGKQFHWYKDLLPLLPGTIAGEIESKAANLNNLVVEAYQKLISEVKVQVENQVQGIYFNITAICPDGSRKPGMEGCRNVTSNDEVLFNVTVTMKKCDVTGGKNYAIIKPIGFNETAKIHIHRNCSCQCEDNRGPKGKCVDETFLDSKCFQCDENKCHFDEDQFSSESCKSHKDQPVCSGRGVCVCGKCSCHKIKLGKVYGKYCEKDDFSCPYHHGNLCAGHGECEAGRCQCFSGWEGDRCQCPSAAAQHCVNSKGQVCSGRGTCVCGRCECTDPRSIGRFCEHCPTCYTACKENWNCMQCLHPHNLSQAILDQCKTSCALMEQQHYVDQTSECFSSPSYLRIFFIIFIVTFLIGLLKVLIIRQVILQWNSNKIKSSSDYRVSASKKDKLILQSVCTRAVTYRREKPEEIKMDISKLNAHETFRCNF
Briefly: SPR. For orientation: In SPR one partner is held on a chip, and binding of the other changes the refractive index at the surface.

Test [1] concerns the target T2, human integrin avb6 (human, UniProt P06756).
T2 chain 1: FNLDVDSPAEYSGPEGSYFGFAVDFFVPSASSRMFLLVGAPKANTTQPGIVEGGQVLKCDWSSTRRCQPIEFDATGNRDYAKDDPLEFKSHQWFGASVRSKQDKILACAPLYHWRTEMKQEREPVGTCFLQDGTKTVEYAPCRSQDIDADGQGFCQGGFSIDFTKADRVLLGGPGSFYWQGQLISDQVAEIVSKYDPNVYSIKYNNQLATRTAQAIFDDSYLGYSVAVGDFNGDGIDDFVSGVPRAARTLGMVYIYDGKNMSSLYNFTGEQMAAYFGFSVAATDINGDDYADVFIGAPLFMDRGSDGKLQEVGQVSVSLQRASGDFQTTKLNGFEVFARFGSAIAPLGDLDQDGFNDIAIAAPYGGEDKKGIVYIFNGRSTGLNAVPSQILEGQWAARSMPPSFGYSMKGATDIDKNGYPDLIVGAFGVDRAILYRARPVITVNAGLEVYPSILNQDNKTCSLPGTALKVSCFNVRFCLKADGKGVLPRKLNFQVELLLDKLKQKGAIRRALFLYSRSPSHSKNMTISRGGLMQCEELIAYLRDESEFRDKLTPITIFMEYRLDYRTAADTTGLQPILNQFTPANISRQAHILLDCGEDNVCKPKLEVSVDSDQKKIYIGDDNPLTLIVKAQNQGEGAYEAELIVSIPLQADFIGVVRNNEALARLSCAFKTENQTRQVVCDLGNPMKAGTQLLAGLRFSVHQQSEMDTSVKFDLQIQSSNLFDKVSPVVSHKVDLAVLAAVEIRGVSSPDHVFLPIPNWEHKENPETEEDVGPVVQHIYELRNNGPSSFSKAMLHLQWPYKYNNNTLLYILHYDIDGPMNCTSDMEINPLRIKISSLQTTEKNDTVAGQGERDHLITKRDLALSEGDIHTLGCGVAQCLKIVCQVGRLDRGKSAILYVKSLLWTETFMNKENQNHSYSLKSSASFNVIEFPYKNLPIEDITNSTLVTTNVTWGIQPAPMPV
T2 chain 2: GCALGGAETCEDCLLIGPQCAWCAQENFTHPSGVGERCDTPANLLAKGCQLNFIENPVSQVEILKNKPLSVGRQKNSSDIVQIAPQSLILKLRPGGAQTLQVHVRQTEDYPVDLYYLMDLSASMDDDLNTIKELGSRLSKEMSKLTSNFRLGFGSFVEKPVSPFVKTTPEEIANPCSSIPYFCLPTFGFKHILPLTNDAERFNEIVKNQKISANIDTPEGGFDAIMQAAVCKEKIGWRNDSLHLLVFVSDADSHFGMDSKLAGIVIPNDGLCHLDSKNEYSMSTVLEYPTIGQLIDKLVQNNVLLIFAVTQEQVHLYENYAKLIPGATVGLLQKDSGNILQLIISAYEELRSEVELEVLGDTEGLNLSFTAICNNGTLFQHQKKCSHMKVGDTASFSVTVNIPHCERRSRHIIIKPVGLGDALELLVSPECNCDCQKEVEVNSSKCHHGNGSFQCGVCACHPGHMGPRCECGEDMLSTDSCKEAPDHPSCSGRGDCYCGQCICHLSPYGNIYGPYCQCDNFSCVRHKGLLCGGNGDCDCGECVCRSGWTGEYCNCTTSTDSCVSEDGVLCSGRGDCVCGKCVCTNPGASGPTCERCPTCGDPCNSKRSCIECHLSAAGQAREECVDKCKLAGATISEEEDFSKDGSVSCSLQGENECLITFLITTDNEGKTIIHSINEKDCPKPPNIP
Briefly: SPR.

A further test has as its target T3, human integrin avb3 (human, UniProt P06756).
T3 chain 1: T2 chain 1
T3 chain 2: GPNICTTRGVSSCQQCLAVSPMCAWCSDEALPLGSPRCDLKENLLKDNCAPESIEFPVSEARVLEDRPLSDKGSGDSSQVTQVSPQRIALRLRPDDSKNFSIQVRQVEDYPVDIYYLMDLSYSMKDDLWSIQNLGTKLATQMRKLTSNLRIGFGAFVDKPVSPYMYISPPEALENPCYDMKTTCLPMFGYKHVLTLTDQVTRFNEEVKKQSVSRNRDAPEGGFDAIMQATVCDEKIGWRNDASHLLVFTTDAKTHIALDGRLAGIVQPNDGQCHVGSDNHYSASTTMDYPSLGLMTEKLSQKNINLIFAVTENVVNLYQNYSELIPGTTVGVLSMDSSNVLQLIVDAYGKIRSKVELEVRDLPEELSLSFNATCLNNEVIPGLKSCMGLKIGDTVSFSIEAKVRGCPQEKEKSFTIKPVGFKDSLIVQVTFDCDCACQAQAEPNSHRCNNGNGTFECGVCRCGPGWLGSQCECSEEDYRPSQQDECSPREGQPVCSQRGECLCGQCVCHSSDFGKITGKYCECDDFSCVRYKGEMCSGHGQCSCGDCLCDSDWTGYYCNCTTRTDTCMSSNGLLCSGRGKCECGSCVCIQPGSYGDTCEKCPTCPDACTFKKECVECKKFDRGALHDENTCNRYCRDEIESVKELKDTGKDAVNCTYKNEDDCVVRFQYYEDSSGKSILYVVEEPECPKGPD
Description: SPR.

Test [2] concerns the target T2, human integrin avb6. Briefly: ELISA. For orientation: An ELISA detects its analyte on a solid surface through an enzyme-linked reagent.

Residue numbers refer to the chain shown, from its start.

B1: ADWA11 VH03/VK02 Fab (antibody, V domains shown)
VH: EVQLVESGGGLVQPGGSLRLSCAASGFNIKDYYMNWVRQAPGKGLEWVGWIDPDNGNTIYDPKFQGRFTISADNAKNSAYLQMNSLRAEDTAVYYCARRLLMDYWGQGTLVTVSS
VL: DIQMTQSPSSLSASVGDRVTITCRSTKSLLHFNGNTYLFWFQQKPGKAPKRLIYYMSNLASGVPSRFSGSGSGTDFTLTISSLQPEDFATYYCMQSLEYPFTFGQGTKVEIK
In general, Kd refers to the equilibrium constant for the complex coming apart. Take B1: the dissociation constant (Kd) with human integrin avb8 was found to be 0.37 nM.

B2: ADWA11 VH03/VK01 Fab (antibody, V domains shown)
VH: B1 VH
VL: B1 VL with F41Y
As to B2, in the test with human integrin avb8, the Kd is < 0.1 nM.

B3: ADWA11 VH01/VK01 Fab (antibody, V domains shown)
VH: B1 VH with G49A, A72R, A79L
VL: B1 VL with F41Y
Take B3: the dissociation constant (Kd) in the test with human integrin avb8 stood at 6.86 nM.

B4: ADWA11 VH02/VK01 Fab (antibody, V domains shown)
VH: B1 VH with G49A, A79L
VL: B1 VL with F41Y
As to B4, in the test with human integrin avb8, the Kd is 1.89 nM.

B5: ADWA11 VH05-2/VK01 antibody (antibody, V domains shown)
VH: B1 VH with N74T, A75S
VL: B1 VL with F41Y
In the case of B5, the binding result in the test with human integrin avb6 [1] and with human integrin avb3 was “no binding” each time.

B6: Mouse hybridoma ADWA-11 IgG (antibody, V domains shown)
VH: EVQLQQSGAELVRPGAFVKLSCKASGFNIKDYYMNWVLQRPEQGLEWIGWIDPDNGNTIYDPKFQGKASITADTSSNTAYLQLSSLTSEDTAVYYCARRLLMDYWGQGTSVTVSS
VL: DIVMTQAAPSVPVTPGESVSISCRSTKSLLHFNGNTYLFWFLQRPGQSPQRLIYYMSNLASGVPDRFSGRGSGTDFTLRISRVEAEDVGVYYCMQSLEYPFTFGTGTKLEIK
B6: the binding result with human integrin avb3 and in the test with human integrin avb6 [2] was “no binding” in each case.
